Data reported in PMC2954053.

Tests used:
[1] = biological target: BTF (UniProt Q9NYF8); experiment: anti-Flag co-IP, BTF blot; details: reference: wild type Flag-PSF; sites T687
[2] = biological target: TRAP150 (UniProt Q9Y2W1); experiment: anti-Flag co-IP, TRAP150 blot; details: reference: wild type Flag-PSF; sites T687

## PSF (from UniProt P23246) T687A
[1]
  binding against the reference: weaker
[2]
  binding against the reference: weaker
